According to US20160271157A1, “BETA-CATENIN” (UCL BUSINESS PLC, priority 2013, published 2016):

B1: Wnt9B: Recombinant Wnt peptide purchased from R&D systems (protein, UniProt O14905 23-357, looked up)
Protein Wnt-9b: SYFGLTGREVLTPFPGLGTAAAPAQGGAHLKQCDLLKLSRRQKQLCRREPGLAETLRDAAHLGLLECQFQFRHERWNCSLEGRMGLLKRGFKETAFLYAVSSAALTHTLARACSAGRMERCTCDDSPGLESRQAWQWGVCGDNLKYSTKFLSNFLGSKRGNKDLRARADAHNTHVGIKAVKSGLRTTCKCHGVSGSCAVRTCWKQLSPFRETGQVLKLRYDSAVKVSSATNEALGRLELWAPARQGSLTKGLAPRSGDLVYMEDSPSFCRPSKYSPGTAGRVCSREASCSSLCCGRGYDTQSRLVAFSCHCQVQWCCYVECQQCVQEELVYTCKH
B2: Wnt5A: Recombinant Wnt peptide purchased from R&D systems (protein, UniProt P41221 62-380, looked up)
Protein Wnt-5a: IIGAQPLCSQLAGLSQGQKKLCHLYQDHMQYIGEGAKTGIKECQYQFRHRRWNCSTVDNTSVFGRVMQIGSRETAFTYAVSAAGVVNAMSRACREGELSTCGCSRAARPKDLPRDWLWGGCGDNIDYGYRFAKEFVDARERERIHAKGSYESARILMNLHNNEAGRRTVYNLADVACKCHGVSGSCSLKTCWLQLADFRKVGDALKEKYDSAAAMRLNSRGKLVQVNSRFNSPTTQDLVYIDPSPDYCVRNESTGSLGTQGRLCNKTSEGMDGCELMCCGRGYDQFKTVQTERCHCKFHWCCYVKCKKCTEIVDQFVCK

Tests used:
[1] = tested on: MCF7 breast cancer cell line; assay: Live [Ca2+]i imaging after addition of Wnt ligand, MCF7; format: cell-based, human; settings: MCF7 cells
Experimental: (§1) The imaging protocol was developed in the inventor's laboratory and has been described in detail, elsewhere (Wang at al., (2010) PLoS ONE 5, e10456). Briefly, 100000-200000 PC3, MCF7, 253J or Cos 7 cells were plated on 35 mm FluoroDish (WPI) and grown for 48 h; calcium indicators Fluo-4 (Invitrogen) and FuraRed (Invitrogen) at 1 ng/ml were added to FluoroDish containing only 1 ml of culture medium and incubated for 15-20 min at 37° C. The culture medium was removed and washed (×2) and replaced with 1 ml PBS. Live cell calcium Imaging was performed on an Olympus FluoView FV 1000 confocal microscope (Olympus […]) equipped with a 20× dry objective (numerical aperture=0.75). Calcium indicators were excited with an argon laser line (488 nm) and emissions recorded in the green channel (500-560 nm) for Fluo-4 and red channel (600-700 nm) for FuraRed after addition of vehicle control (PBS) or Wnt X (30-600 ng/ml). Images were acquired every 1.1 or 2.2 seconds for up to 600-800s; image and data acquisition was performed using FluoView 1000 software (Olympus, UK). Fluorescent intensity was measured and data exported as a tab delimited file for further analysis using a spreadsheet. All imaging experiments were performed in duplicate; intracellular calcium at 100 ng/ml was measured in at least 3-12 different passages (passage numbers 25 to 37) of cell line for each Wnt ligand. Wnt 11 was tested in at least 5 different passages at 3 different concentrations. […] The measurements were exported as a tab delimited file into a spreadsheet for further analysis and Fluo4/Fura Red ratios were calculated. […] The time constants (rise, dwell and fall times) were calculated by first fitting the Fluo4/FuraRed ratio to a single Gaussian function (Origin Lab Corp., MA); a lower (10%) and upper (90%) amplitude thresholding method was then used to calculate the time constants (s). Statistical significance was calculated using Mann Whitney U test.

[2] = tested on: 253J urinary tract (bladder) cancer cell line; assay: Live [Ca2+]i imaging after addition of Wnt ligand, 253J; format: cell-based, human; settings: 253J cells
Experimental: as §1

PC3 cells [3] = assay: Scratch wound assay; format: cell-based; settings: wounded PC3 cells, ±Wnts and thapsigargin, vs control untreated cells
Experimental: PC3 cells were grown in 24 well, ImageLock plates (Essen Bioscience, MI) to confluency and scratched using a wound maker device (Essen Bioscience, MI). Imaging (at 2 h intervals) and quantitation of wound width was performed as described earlier (Wang at al., (2010) PLoS ONE 5, e10456) using Incucyte (Essen Bioscience, MI). The rate of wound closure (±Wnts and thapsigargin) was calculated by fitting the line using linear regression function in Origin software (Origin Lab Corp., MA). Statistical significance of difference between the slopes for untreated and treated samples was calculated using F-test.

[4] = tested on: Cos7 simian kidney cell line; assay: Live [Ca2+]i imaging after addition of Wnt ligand, Cos7; format: cell-based; settings: Cos7 cells
Experimental: The imaging protocol was developed in the inventor's laboratory and has been described in detail, elsewhere (Wang at al., (2010) PLoS ONE 5, e10456). Briefly, 100000-200000 PC3, MCF7, 253J or Cos 7 cells were plated on 35 mm FluoroDish (WPI) and grown for 48 h; calcium indicators Fluo-4 (Invitrogen) and FuraRed (Invitrogen) at 1 ng/ml were added to FluoroDish containing only 1 ml of culture medium and incubated for 15-20 min at 37° C. The culture medium was removed and washed (×2) and replaced with 1 ml PBS. Live cell calcium Imaging was performed on an Olympus FluoView FV 1000 confocal microscope (Olympus […]) equipped with a 20× dry objective (numerical aperture=0.75). Calcium indicators were excited with an argon laser line (488 nm) and emissions recorded in the green channel (500-560 nm) for Fluo-4 and red channel (600-700 nm) for FuraRed after addition of vehicle control (PBS) or Wnt X (30-600 ng/ml). […] Fluorescent intensity was measured and data exported as a tab delimited file for further analysis using a spreadsheet. All imaging experiments were performed in duplicate; intracellular calcium at 100 ng/ml was measured in at least 3-12 different passages (passage numbers 25 to 37) of cell line for each Wnt ligand. […] The measurements were exported as a tab delimited file into a spreadsheet for further analysis and Fluo4/Fura Red ratios were calculated. […]

PC3 cells [5] = assay: Intranuclear calcium and membrane potential imaging (Fluo4 and FM4-64); format: cell-based; settings: Wnt5A 100 ng/ml
Experimental: The imaging protocol was developed in the inventor's laboratory and has been described in detail, elsewhere (Wang at al., (2010) PLoS ONE 5, e10456). Briefly, 100000-200000 PC3, MCF7, 253J or Cos 7 cells were plated on 35 mm FluoroDish (WPI) and grown for 48 h; calcium indicators Fluo-4 (Invitrogen) and FuraRed (Invitrogen) at 1 ng/ml were added to FluoroDish containing only 1 ml of culture medium and incubated for 15-20 min at 37° C. The culture medium was removed and washed (×2) and replaced with 1 ml PBS. Live cell calcium Imaging was performed on an Olympus FluoView FV 1000 confocal microscope (Olympus […]) equipped with a 20× dry objective (numerical aperture=0.75). Calcium indicators were excited with an argon laser line (488 nm) and emissions recorded in the green channel (500-560 nm) for Fluo-4 and red channel (600-700 nm) for FuraRed after addition of vehicle control (PBS) or Wnt X (30-600 ng/ml). Images were acquired every 1.1 or 2.2 seconds for up to 600-800s; image and data acquisition was performed using FluoView 1000 software (Olympus, UK). Fluorescent intensity was measured and data exported as a tab delimited file for further analysis using a spreadsheet. All imaging experiments were performed in duplicate; intracellular calcium at 100 ng/ml was measured in at least 3-12 different passages (passage numbers 25 to 37) of cell line for each Wnt ligand. […]

Molecule	[Ca2+]i release in response to Wnt ligand [1]	[Ca2+]i release in response to Wnt ligand [2]	rate of wound closure (PC3 cells [3])	[Ca2+]i activation in response to Wnt ligand [4]	delay of increase in intranuclear Ca2+ after start of increase in [Ca2+]i (PC3 cells [5]; Fluo4 and FM4) [s]	FM4 signal (depolarization) of cell and nuclear membranes (PC3 cells [5]; t=250s)
Wnt10B: Recombinant Wnt peptide purchased from R&D systems	activated [Ca^2+]i release	activated [Ca^2+]i release				
C/C=C(/C)C(=O)O[C@H]1C(C)=C2[C@H]([C@@H]1OC(=O)CCCCCCC)[C@@](C)(OC(C)=O)C[C@H](OC(=O)CCC)[C@@]1(O)[C@H]2OC(=O)[C@@]1(C)O [thapsigargin, reference compound]			significant decrease			
B1	activated [Ca^2+]i release	activated [Ca^2+]i release				
B2	activated [Ca^2+]i release	activated [Ca^2+]i release		activated [Ca^2+]i	~33	increase in the FM4 signal in the cell and nuclear membranes
